# Measurements published in US20200216522A1 (DENALI THERAPEUTICS, published 2020).
# T1: Peptide_042 (human)
# T1 peptide: PGSRSRTPSLPTPPT
# T2: Peptide_009 (human)
# T2 peptide: AGLKESPLQTPTEDG
# T3: Peptide_058 (human)
# T3 peptide: NVQSKCGSKDNIKHV
# T4: Peptide_012 (human)
# T4 peptide: SEEPGSETSDAKSTP
# T5: Peptide_081 (human)
# T5 peptide: GDTSPRHLSNVSSTG
# T6: Peptide_073 (human)
# T6 peptide: THVPGGGNKKIETHK
# T7: Peptide_059 (human)
# T7 peptide: CGSKDNIKHVPGGGS
# T8: Peptide_034 (human)
# T8 peptide: ANATRIPAKTPPAPK
# T9: Peptide_011 (human)
# T9 peptide: PTEDGSEEPGSETSD
# T10: Peptide_043 (human)
# T10 peptide: RTPSLPTPPTREPKK
# T11: Peptide_002 (human)
# T11 peptide: QEFEVMEDHAGTYGL
# T12: Peptide_033 (human)
# T12 peptide: GQKGQANATRIPAKT
# T13: Peptide_001 (human)
# T13 peptide: MAEPRQEFEVMEDHA
# T14: Peptide_030 (human)
# T14 peptide: DGKTKIATPRGAAPP
# T15: Peptide_014 (human)
# T15 peptide: AKSTPTAEDVTAPLV
# T16: Peptide_036 (human)
# T16 peptide: PPAPKTPPSSGEPPK
# T17: process-control peptide
# T17 construct: array control, not a Tau peptide
# T17 peptide: GGSGGGSDYKDDDDK
# T18: Peptide_054 (human)
# T18 peptide: LKHQPGGGKVQIINK
# T19: Peptide_047 (human)
# T19 peptide: TPPKSPSSAKSRLQT
# T20: Peptide_008 (human)
# T20 peptide: EGDTDAGLKESPLQT
# T21: Peptide_015 (human)
# T21 peptide: TAEDVTAPLVDEGAP
# T22: Peptide_044 (human)
# T22 peptide: PTPPTREPKKVAVVR
# T23: Peptide_017 (human)
# T23 peptide: DEGAPGKQAAAQPHT
# T24: Peptide_067 (human)
# T24 peptide: KPGGGQVEVKSEKLD
# T25: Peptide_085 (human)
# T25 peptide: DSPQLATLADEVSAS
# T26: Peptide_006 (human)
# T26 peptide: QGGYTMHQDQEGDTD
# T27: Peptide_031 (human)
# T27 peptide: IATPRGAAPPGQKGQ
# T28: Peptide_063 (human)
# T28 peptide: KPVDLSKVTSKCGSL
# T29: Peptide_023 (human)
# T29 peptide: TPSLEDEAAGHVTQA
# T30: Peptide_077 (human)
# T30 peptide: NAKAKTDHGAEIVYK
# T31: Peptide_051 (human)
# T31 peptide: PDLKNVKSKIGSTEN
# T32: Peptide_038 (human)
# T32 peptide: GEPPKSGDRSGYSSP
# T33: Peptide_074 (human)
# T33 peptide: GGNKKIETHKLTFRE
# T34: Peptide_020 (human)
# T34 peptide: EIPEGTTAEEAGIGD
# T35: Peptide_025 (human)
# T35 peptide: HVTQARMVSKSKDGT
# B1: murine anti-Tau hybridoma antibody 17G2.A1 (antibody, V domains shown)
# VH: QVQLQQPGAELVGPGSSVKLSCKASGYTFINYWIDWMKQSPGQGLEWIGNIYPSDSESHYNQKFTDKATLTVDISSSTAYLQLSSLTSEDSAVYYCALYSKGYWGQGTSVTVSS
# VL: DVLMTQTPLSLPVTLGDQASISCRSSQNIVHTNGNTYLEWYLQKPGQSPKLLIYKLSSRFSGVPDRFSGSGSGTDFTLKISRVEAEDLGVYYCFQGSHLPFTFGGGTKLEIKR
# notes: mouse IgG from hybridoma; also called anti-Tau 17G2.A1
# B2: chimeric IgG clone 1D10 (antibody, V domains shown)
# VH: EVQLQQSGAELVRPGASVKLSCTASGFNIKDSLMHWMKQRPEQGLEWIGWIDPEDGETKYAPKFQDKATLTADTSSNAAYLQLSSLTSEDTAIYYCVRGDWDGGYWGQGTTLTVSS
# VL: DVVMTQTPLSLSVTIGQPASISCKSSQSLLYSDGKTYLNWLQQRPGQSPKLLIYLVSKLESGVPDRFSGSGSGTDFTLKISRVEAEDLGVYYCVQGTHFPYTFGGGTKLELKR
# notes: mouse-human chimeric IgG from HEK293
# B3: chimeric IgG clone 1G7 (antibody, V domains shown)
# VH: EVQLQQSGAEVVRPGASVKLSCTTSGFNIKDSLMHWLKQRPEQGLEWIGWIDPEDGETKYAPKFQDKATITADTSSNTAYLQLSSLTSGDTAIYYCARRDWEGPWGQGTLVTVSA
# VL: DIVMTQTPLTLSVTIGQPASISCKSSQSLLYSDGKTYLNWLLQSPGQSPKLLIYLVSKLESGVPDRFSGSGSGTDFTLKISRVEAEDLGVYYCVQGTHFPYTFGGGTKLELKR
# notes: as for B2
# Biological target: T1, Peptide_042
# Assay: peptide array
# In short: (§1)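 Epitope mapping used slides carrying triplicate 15-residue peptides, offset by 5 aa, tiling full-length human Tau 2N4R. Chimeric IgG at 5 μg/mL or murine IgG at 30 μg/mL in 3% BSA-TBST (pH 7.5) bound for 2 h at RT; Alexa Fluor secondaries (568 or 647 nm channel) applied 1 h, then imaged.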
row,Binder,binding result
1,B1,no binding (tested: 30 ug/mL)
2,B2,no binding (tested: 5 ug/mL)
3,B3,no binding (tested: 5 ug/mL)

# Biological target: T2, Peptide_009
# Assay: peptide array
# In short: as §1
row,Binder,binding result
1,B1,no binding (tested: 30 ug/mL)
2,B2,no binding (tested: 5 ug/mL)
3,B3,no binding (tested: 5 ug/mL)

# Biological target: T3, Peptide_058
# Assay: peptide array
# In short: as §1
row,Binder,binding result
1,B1,no binding (tested: 30 ug/mL)
2,B2,no binding (tested: 5 ug/mL)
3,B3,no binding (tested: 5 ug/mL)

# Biological target: T4, Peptide_012
# Assay: peptide array
# In short: as §1
row,Binder,binding result
1,B1,no binding (tested: 30 ug/mL)
2,B2,no binding (tested: 5 ug/mL)
3,B3,no binding (tested: 5 ug/mL)

# Biological target: T5, Peptide_081
# Assay: peptide array
# In short: as §1
row,Binder,binding result
1,B1,no binding (tested: 30 ug/mL)
2,B2,no binding (tested: 5 ug/mL)
3,B3,no binding (tested: 5 ug/mL)

# Biological target: T6, Peptide_073
# Assay: peptide array
# In short: as §1
row,Binder,binding result
1,B1,no binding (tested: 30 ug/mL)
2,B2,no binding (tested: 5 ug/mL)
3,B3,no binding (tested: 5 ug/mL)

# Biological target: T7, Peptide_059
# Assay: peptide array
# In short: as §1
row,Binder,binding result
1,B1,no binding (tested: 30 ug/mL)
2,B2,no binding (tested: 5 ug/mL)
3,B3,no binding (tested: 5 ug/mL)

# Biological target: T8, Peptide_034
# Assay: peptide array
# In short: as §1
row,Binder,binding result
1,B1,no binding (tested: 30 ug/mL)
2,B2,no binding (tested: 5 ug/mL)
3,B3,no binding (tested: 5 ug/mL)

# Biological target: T9, Peptide_011
# Assay: peptide array
# In short: as §1
row,Binder,binding result
1,B1,no binding (tested: 30 ug/mL)
2,B2,no binding (tested: 5 ug/mL)
3,B3,no binding (tested: 5 ug/mL)

# Biological target: T10, Peptide_043
# Assay: peptide array
# In short: as §1
row,Binder,binding result
1,B1,no binding (tested: 30 ug/mL)
2,B2,no binding (tested: 5 ug/mL)
3,B3,no binding (tested: 5 ug/mL)

# Biological target: T11, Peptide_002
# Assay: peptide array
# In short: as §1
row,Binder,binding result
1,B1,no binding (tested: 30 ug/mL)
2,B2,no binding (tested: 5 ug/mL)
3,B3,no binding (tested: 5 ug/mL)

# Biological target: T12, Peptide_033
# Assay: peptide array
# In short: as §1
row,Binder,binding result
1,B1,no binding (tested: 30 ug/mL)
2,B2,no binding (tested: 5 ug/mL)
3,B3,no binding (tested: 5 ug/mL)

# Biological target: T13, Peptide_001
# Assay: peptide array
# In short: as §1
row,Binder,binding result
1,B1,no binding (tested: 30 ug/mL)
2,B2,no binding (tested: 5 ug/mL)
3,B3,no binding (tested: 5 ug/mL)

# Biological target: T14, Peptide_030
# Assay: peptide array
# In short: as §1
row,Binder,binding result
1,B1,no binding (tested: 30 ug/mL)
2,B2,no binding (tested: 5 ug/mL)
3,B3,no binding (tested: 5 ug/mL)

# Biological target: T15, Peptide_014
# Assay: peptide array
# In short: as §1
row,Binder,binding result
1,B1,no binding (tested: 30 ug/mL)
2,B2,no binding (tested: 5 ug/mL)
3,B3,no binding (tested: 5 ug/mL)

# Biological target: T16, Peptide_036
# Assay: peptide array
# In short: as §1
row,Binder,binding result
1,B1,no binding (tested: 30 ug/mL)
2,B2,no binding (tested: 5 ug/mL)
3,B3,no binding (tested: 5 ug/mL)

# Biological target: T17, process-control peptide
# Assay: peptide array
# In short: as §1
row,Binder,binding result
1,B1,no binding (tested: 30 ug/mL)
2,B2,no binding (tested: 5 ug/mL)
3,B3,no binding (tested: 5 ug/mL)

# Biological target: T18, Peptide_054
# Assay: peptide array
# In short: as §1
row,Binder,binding result
1,B1,no binding (tested: 30 ug/mL)
2,B2,no binding (tested: 5 ug/mL)
3,B3,no binding (tested: 5 ug/mL)

# Biological target: T19, Peptide_047
# Assay: peptide array
# In short: as §1
row,Binder,binding result
1,B1,no binding (tested: 30 ug/mL)
2,B2,no binding (tested: 5 ug/mL)
3,B3,no binding (tested: 5 ug/mL)

# Biological target: T20, Peptide_008
# Assay: peptide array
# In short: as §1
row,Binder,binding result
1,B1,no binding (tested: 30 ug/mL)
2,B2,no binding (tested: 5 ug/mL)
3,B3,no binding (tested: 5 ug/mL)

# Biological target: T21, Peptide_015
# Assay: peptide array
# In short: as §1
row,Binder,binding result
1,B1,no binding (tested: 30 ug/mL)
2,B2,no binding (tested: 5 ug/mL)
3,B3,no binding (tested: 5 ug/mL)

# Biological target: T22, Peptide_044
# Assay: peptide array
# In short: as §1
row,Binder,binding result
1,B1,no binding (tested: 30 ug/mL)
2,B2,no binding (tested: 5 ug/mL)
3,B3,no binding (tested: 5 ug/mL)

# Biological target: T23, Peptide_017
# Assay: peptide array
# In short: as §1
row,Binder,binding result
1,B1,no binding (tested: 30 ug/mL)
2,B2,no binding (tested: 5 ug/mL)
3,B3,no binding (tested: 5 ug/mL)

# Biological target: T24, Peptide_067
# Assay: peptide array
# In short: as §1
row,Binder,binding result
1,B1,no binding (tested: 30 ug/mL)
2,B2,no binding (tested: 5 ug/mL)
3,B3,no binding (tested: 5 ug/mL)

# Biological target: T25, Peptide_085
# Assay: peptide array
# In short: as §1
row,Binder,binding result
1,B1,no binding (tested: 30 ug/mL)
2,B2,no binding (tested: 5 ug/mL)
3,B3,no binding (tested: 5 ug/mL)

# Biological target: T26, Peptide_006
# Assay: peptide array
# In short: as §1
row,Binder,binding result
1,B1,no binding (tested: 30 ug/mL)
2,B2,no binding (tested: 5 ug/mL)
3,B3,no binding (tested: 5 ug/mL)

# Biological target: T27, Peptide_031
# Assay: peptide array
# In short: as §1
row,Binder,binding result
1,B1,no binding (tested: 30 ug/mL)
2,B2,no binding (tested: 5 ug/mL)
3,B3,no binding (tested: 5 ug/mL)

# Biological target: T28, Peptide_063
# Assay: peptide array
# In short: as §1
row,Binder,binding result
1,B1,no binding (tested: 30 ug/mL)
2,B2,no binding (tested: 5 ug/mL)
3,B3,no binding (tested: 5 ug/mL)

# Biological target: T29, Peptide_023
# Assay: peptide array
# In short: as §1
row,Binder,binding result
1,B1,no binding (tested: 30 ug/mL)
2,B2,no binding (tested: 5 ug/mL)
3,B3,no binding (tested: 5 ug/mL)

# Biological target: T30, Peptide_077
# Assay: peptide array
# In short: as §1
row,Binder,binding result
1,B1,no binding (tested: 30 ug/mL)
2,B2,no binding (tested: 5 ug/mL)
3,B3,no binding (tested: 5 ug/mL)

# Biological target: T31, Peptide_051
# Assay: peptide array
# In short: as §1
row,Binder,binding result
1,B1,no binding (tested: 30 ug/mL)
2,B2,binds
3,B3,binds

# Biological target: T32, Peptide_038
# Assay: peptide array
# In short: as §1
row,Binder,binding result
1,B1,binds
2,B2,no binding (tested: 5 ug/mL)
3,B3,no binding (tested: 5 ug/mL)

# Biological target: T33, Peptide_074
# Assay: peptide array
# In short: as §1
row,Binder,binding result
1,B1,no binding (tested: 30 ug/mL)
2,B2,no binding (tested: 5 ug/mL)
3,B3,no binding (tested: 5 ug/mL)

# Biological target: T34, Peptide_020
# Assay: peptide array
# In short: as §1
row,Binder,binding result
1,B1,no binding (tested: 30 ug/mL)
2,B2,no binding (tested: 5 ug/mL)
3,B3,no binding (tested: 5 ug/mL)

# Biological target: T35, Peptide_025
# Assay: peptide array
# In short: as §1
row,Binder,binding result
1,B1,no binding (tested: 30 ug/mL)
2,B2,no binding (tested: 5 ug/mL)
3,B3,no binding (tested: 5 ug/mL)
